Assay results from the supplement of paper PMC9170038.

Test system: MS2 coat protein
Test: apparent KD of MS2 coat protein; designed switch direction (-1 OFF switch, 1 ON switch): -1; higher = weaker reporter binding
Method in brief: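 Designed RNA switches with common flanks were made on Illumina chips by stalled E. coli RNA polymerase. Titration with SNAP-549-labelled MS2 coat protein doubled from 0.7 or 1.5 nM up to 3 µM. Apparent KD is each design's median over clusters after curve-fitting normalised fluorescence.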

[1] = Eterna round: R95, input ligand: FMN 200 uM
[2] = Eterna round: R95, input ligand: microRNA oligo, concentration not stated
[3] = Eterna round: R95, input ligand: none
[4] = input ligand: microRNA oligo, concentration not stated

Sequence	apparent KD of MS2 coat protein (input ligand: FMN 200 uM) [nM]	apparent KD of MS2 coat protein (input ligand: none) [nM]	apparent KD of MS2 coat protein [1] [nM]	apparent KD of MS2 coat protein [2] [nM]	apparent KD of MS2 coat protein [3] [nM]	apparent KD of MS2 coat protein [4] [nM]
AAAUAGCGAGGAUAUACUCCAAUAGCAAAUAUUCCCAUGGCACAUGAGGAUCACCCAUGUAGAAGGCGCAGUAA (Eterna round: R97, puzzle: Exclusion 2)	54.2	44.4				
UUUUUCAGGCCAGAUCCUCACAUGAGGAUCACCCAUGUGCUCGUCUGUUUUCGCACUAGCUUUUUUUUGGUAGUGCU [Level Boss var2-15] (puzzle: Sensor v3, turn-off variant 1)			280	28.4	325	
AGUACAUGAGGAUCACCCAUGUCAGUUAUCAAUGGCACGCCUAAGGAUAUUGAGCGUCAAAGGCUCAAGAAGGUAGCUUUAUGC [Eternabot solution 12] (Eterna round: R96, puzzle: Exclusion NG 3)	13.7	25.6				16.7
CUGGUCCGAGGAUAUAUUAAGUGAAACAUGAGGAUCACCCAUGUUAUUUAAUGGAAGUAAAUAGAAGGCGGACUAG [Mat - Exclusion 5 - JL mod - D54] (puzzle: Exclusion 5)			38.7	48.8	43.5	
UAACACCGAGGAUAUACAUUUCUCAUAAGGUGCAAAACCGCACAUGAGGAUCACCCAUGUAGAAGGCGGCAAAU [Enrabeange] (puzzle: Exclusion 2)			32	10.5	14.8	
CCUCUACAUGAGGAUCACCCAUGUGAGGAUAUCCUGCGAGGAUCAAAAGAUCCUCGUGGGAGAAGGCAUAUGUA [Omei Ex1 A2] (Eterna round: R97, puzzle: Exclusion 1)	30.6	24.8				
UAGGAGCAAGGAUAUACGAGGAUAUGGUAGUUUGUAGAGUGACAUGAGGAUCACCCAUGUAGAAGGUGCGUGUG [JR_Exclu2_Sub0100] (puzzle: Exclusion 2)				82.9		
GUAAUUAAUGUAGGAUAUGCAAGGCGAACCUAAGCAGAAGGACAUGAGGAUCACCCAUGUAUUGCGGUCUGCGUUCUGAUCGCU [salish99_ExNG1_r4_010] (Eterna round: R96, puzzle: Exclusion NG 1)	19.1	17				8.25
GGAUAUAAUGUGAGGAUAUCUGCGAUACCUAGUCGAGAGAAGGCACAUGAGGAUCACCCAUGUGAGGACCUCGU [Eternabot (L1) Solution 98] (Eterna round: R97, puzzle: Brourd's mod of Exclusion 4)	29.6	19.4				
GGUAGGUGUGACUUGGGUGACAUGAGGAUCACCCAUGUCACAAGCUUGUUGCUCGCCUUGUAGUUAACCCAUGUCAC [LRO Sensor-off var1-30 mod of Stov1-13-A1 by Brourd] (Eterna round: R97, puzzle: Sensor, turn-off variant 1)	34.1	34.5				
CUUGUGUGAGGAUAUGAAUUGCCUGGUCAUCCAGGCUCCUGUCAGAAGGCACAUGAGGAUCACCCAUGUGGGCA [Biatire] (Eterna round: R97, puzzle: Exclusion 4)	120	882				
UUAAAGGCAGGAUAUACAUUUUUUUUAUUAUCCUCAUUAUUACAUGAGGAUCACCCAUGUAGAAGGGCCAAAUU [Mat - Exclusion 2 - Mod of Hog - D85] (puzzle: Exclusion 2)				57.6		
GAACUCGUGAAGGAUAUCCGUACCAAAGCGGCAGGAGAAGGUCACACAUGAGGAUCACCCAUGUGGUACCUCGU [Xeinbira] (puzzle: Exclusion 6)			80.1	27.4	25.1	
